Changes are numbered by the printed parent chain.
B1: 72S 73Q 74A (protein, listed as Rattus norvegicus)
chain: AFDGTWKVDRNENYEKFMEKMGINVVKRKLGAHDNLKLTITQEGNKFTVKESSNFRNIDVVFELGVDFAYSSQAGTELTGTWTMEGNKLVGKFKRVDNGKELIAVREISGNELIQTYTYEGVEAKRIFKKE
modifications: PEPTIDE (1)...(131) wild-type rat intestinal fatty acid binding protein
B2: 72E 73V 74A (protein, listed as Rattus norvegicus)
chain: B1 chain with S72E, Q73V
modifications: PEPTIDE (1)...(131) wild-type rat intestinal fatty acid binding protein
B3: 72S 73V 74A (protein, listed as Rattus norvegicus)
chain: B1 chain with Q73V
modifications: PEPTIDE (1)...(131) wild-type rat intestinal fatty acid binding protein
B4: 72S 74A (protein, listed as Rattus norvegicus)
chain: B1 chain with Q73A
modifications: PEPTIDE (1)...(131) wild-type rat intestinal fatty acid binding protein
B5: 38Y 117A 72A (protein, listed as Rattus norvegicus)
chain: B1 chain with L38Y, S72A, Q73A, A74D, Y117A
modifications: PEPTIDE (1)...(131) wild-type rat intestinal fatty acid binding protein
B6: 18I 31M 55M 72A (protein, listed as Rattus norvegicus)
chain: B1 chain with M18I, G31M, F55M, S72A, Q73A, A74D
modifications: PEPTIDE (1)...(131) wild-type rat intestinal fatty acid binding protein
B7: 18V 31F 55L 72A (protein, listed as Rattus norvegicus)
chain: B1 chain with M18V, G31F, F55L, S72A, Q73A, A74D
modifications: PEPTIDE (1)...(131) wild-type rat intestinal fatty acid binding protein
B8: 72A 73P 74E (protein, listed as Rattus norvegicus)
chain: B1 chain with S72A, Q73P, A74E
modifications: PEPTIDE (1)...(131) wild-type rat intestinal fatty acid binding protein
B9: 18I 31Y 72A (protein, listed as Rattus norvegicus)
chain: B1 chain with M18I, G31Y, S72A, Q73A, A74D
modifications: PEPTIDE (1)...(131) wild-type rat intestinal fatty acid binding protein
B10: 72G 73F 74N (protein, listed as Rattus norvegicus)
chain: B1 chain with S72G, Q73F, A74N
modifications: PEPTIDE (1)...(131) wild-type rat intestinal fatty acid binding protein
B11: 72T 73G 74I (protein, listed as Rattus norvegicus)
chain: B1 chain with S72T, Q73G, A74I
modifications: PEPTIDE (1)...(131) wild-type rat intestinal fatty acid binding protein
B12: 18I 31V 55V 73V 72A (protein, listed as Rattus norvegicus)
chain: B1 chain with M18I, G31V, F55V, S72A, Q73V, A74D
modifications: PEPTIDE (1)...(131) wild-type rat intestinal fatty acid binding protein
B13: 74S 72A 73F (protein, listed as Rattus norvegicus)
chain: B1 chain with S72A, Q73F, A74S
modifications: PEPTIDE (1)...(131) wild-type rat intestinal fatty acid binding protein
B14: 38I 74F 72A (protein, listed as Rattus norvegicus)
chain: B1 chain with L38I, S72A, Q73A, A74F
modifications: PEPTIDE (1)...(131) wild-type rat intestinal fatty acid binding protein
B15: 18V 31F 73M 72A (protein, listed as Rattus norvegicus)
chain: B1 chain with M18V, G31F, S72A, Q73M, A74D
modifications: PEPTIDE (1)...(131) wild-type rat intestinal fatty acid binding protein
B16: 72T 73I 74A (protein, listed as Rattus norvegicus)
chain: B1 chain with S72T, Q73I
modifications: PEPTIDE (1)...(131) wild-type rat intestinal fatty acid binding protein
B17: 74Q 72A 73F (protein, listed as Rattus norvegicus)
chain: B1 chain with S72A, Q73F, A74Q
modifications: PEPTIDE (1)...(131) wild-type rat intestinal fatty acid binding protein
B18: 18V 31A 55I 72A (protein, listed as Rattus norvegicus)
chain: B1 chain with M18V, G31A, F55I, S72A, Q73A, A74D
modifications: PEPTIDE (1)...(131) wild-type rat intestinal fatty acid binding protein
B19: 73P 72A 74F (protein, listed as Rattus norvegicus)
chain: B1 chain with S72A, Q73P, A74F
modifications: PEPTIDE (1)...(131) wild-type rat intestinal fatty acid binding protein
B20: 14M 18L 31W 73I 117G 72A (protein, listed as Rattus norvegicus)
chain: B1 chain with Y14M, M18L, G31W, S72A, Q73I, A74D, Y117G
modifications: PEPTIDE (1)...(131) wild-type rat intestinal fatty acid binding protein

Assay: Probe fluorescence ratio response to arachidonic acid relative to ADIFAB2
Format: binding
Conditions: arachidonic acid; response relative to ADIFAB2
Outline: (§1)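 Fluorescently labeled rat intestinal FABP variants were read at two emission wavelengths, near the unbound maximum (about 420 to 480 nm) and the FFA-bound maximum (about 495 to 580 nm). R = Fλ1/Fλ2 after subtracting probe-free intensity; ΔR = R+agent − R0, normalized to ADIFAB2 (rI-FABP-L72A).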

Molecule	DR/DR AA
B1	2.290
B2	0.478
B3	2.127
B4	1.648
B5	2.216
B6	1.010
B7	0.921
B8	1.975
B9	2.205
B10	0.617
B11	2.226
B12	0.632
B13	0.893
B14	0.787
B15	1.014
B16	2.148
B17	0.465
B18	0.989
B19	1.078
B20	2.032

Assay: Probe fluorescence ratio response to linolenic acid relative to ADIFAB2
Format: binding
Conditions: response relative to ADIFAB2
Outline: as §1

Molecule	DR/DR LNA
B1	2.077
B2	0.784
B3	2.330
B4	2.002
B5	1.547
B6	1.358
B7	1.180
B8	1.863
B9	2.813
B10	1.367
B11	2.317
B12	1.179
B13	1.433
B14	1.395
B15	1.511
B16	1.944
B17	1.025
B18	1.580
B19	1.518
B20	1.869

Assay: Probe fluorescence ratio response to linoleic acid relative to ADIFAB2
Format: binding
Conditions: response relative to ADIFAB2
Outline: as §1

Molecule	DR/DR LA
B1	2.140
B2	0.735
B3	2.397
B4	2.037
B5	1.869
B6	1.134
B7	0.996
B8	1.741
B9	2.790
B10	0.454
B11	2.577
B12	0.853
B13	1.035
B14	1.162
B15	1.296
B16	1.795
B17	0.711
B18	1.334
B19	0.838
B20	2.034

Assay: Probe fluorescence ratio response to oleic acid relative to ADIFAB2
Format: binding
Conditions: response relative to ADIFAB2
Outline: as §1

Molecule	DR/DR OA
B1	1.875
B2	0.524
B3	2.295
B4	1.575
B5	1.976
B6	0.601
B7	0.649
B8	1.802
B9	2.096
B10	−0.032
B11	2.414
B12	0.448
B13	0.630
B14	0.764
B15	0.794
B16	1.721
B17	0.390
B18	0.791
B19	0.868
B20	1.712

Assay: Probe fluorescence ratio response to palmitic acid relative to ADIFAB2
Format: binding
Conditions: response relative to ADIFAB2
Outline: as §1

Molecule	DR/DR PA
B1	1.896
B2	0.736
B3	2.601
B4	1.615
B5	0.933
B6	1.099
B7	1.035
B8	1.732
B9	1.762
B10	0.456
B11	2.177
B12	0.974
B13	1.158
B14	1.343
B15	1.395
B16	1.687
B17	0.649
B18	1.280
B19	1.278
B20	0.998

Assay: Probe fluorescence ratio response to palmitoleic acid relative to ADIFAB2
Format: binding
Conditions: response relative to ADIFAB2
Outline: as §1

Molecule	DR/DR POA
B1	2.293
B2	1.093
B3	2.727
B4	2.034
B5	0.839
B6	1.353
B7	1.353
B8	2.087
B9	2.639
B10	1.499
B11	2.771
B12	1.236
B13	2.413
B14	2.112
B15	1.538
B16	2.320
B17	1.479
B18	1.563
B19	1.776
B20	1.569

Assay: Probe fluorescence ratio response to stearic acid relative to ADIFAB2
Format: binding
Conditions: response relative to ADIFAB2
Outline: as §1

Molecule	DR/DR SA
B1	1.311
B2	0.234
B3	1.572
B4	1.114
B5	1.201
B6	0.296
B7	0.358
B8	1.512
B9	0.994
B10	−0.043
B11	1.755
B12	0.233
B13	0.337
B14	0.503
B15	0.383
B16	1.359
B17	0.177
B18	0.420
B19	0.494
B20	0.487
